± gives the standard deviation of the averaged measurements.
Key:
[1] = melting temperature (DSF); higher = more thermostable
Procedure, shortened: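 Enzymes made in E. coli C41(DE3) were nickel-bead purified and cut free with SUMO protease before testing. Differential scanning fluorimetry gave each melting temperature. For this, 5 μL 5X Sypro Orange was added to 45 μL enzyme (0 to 0.3 mg/mL) in sealed PCR plates, and a Bio-Rad CFX96 read fluorescence from 25 °C over 250 cycles of 0.3 °C each, ramping at 0.3 °C/s.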

[2] = purified protein yield per well (BCA); higher = higher soluble expression
Procedure, shortened: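 Candidate enzymes were made in 2 mL autoinduction cultures of E. coli C41(DE3) with 100 µg/mL kanamycin, at 37 °C for 2 h and then 18 °C for 40 h, and purified with Ni-charged magnetic beads and SUMO protease cleavage. The Pierce Rapid Gold BCA kit gave purified protein yield per well. Values lower than 25 ug (0.1 mg/mL) are below the detection threshold.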

[3] = PET hydrolysis, aromatic products released after 48 h (umol product/mg enzyme); higher = more PET depolymerization activity
Description: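 HTP-purified, SUMO-cleaved, tagless PET hydrolase candidates (5 ug, 1.43 mg/g PET) were incubated 48 h without shaking with 3.5 mg amorphous PET film (aFilm) or crystalline PET powder (cryPow) in 0.5 mL buffer: NaCitrate pH 4.5/5.5, NaPhosphate pH 6.5/7.5, glycine pH 8.5. Incubation was at 40 or 60 C. Aromatic products (TPA, MHET, BHET) in the supernatant were quantified by UV absorbance at 260/280 nm relative to buffer blanks and expressed per mg enzyme. LCC-ICCG was the positive control on every plate.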

[4] = substrate: aFilm, 40 °C, pH 4.5
[5] = substrate: aFilm, 40 °C, pH 5.5
[6] = substrate: aFilm, 40 °C, pH 6.5
[7] = substrate: aFilm, 40 °C, pH 7.5
[8] = substrate: aFilm, 60 °C, pH 4.5
[9] = substrate: aFilm, 60 °C, pH 5.5
[10] = substrate: aFilm, 60 °C, pH 6.5
[11] = substrate: aFilm, 60 °C, pH 7.5
[12] = substrate: cryPow, 40 °C, pH 4.5
[13] = substrate: cryPow, 40 °C, pH 5.5
[14] = substrate: cryPow, 40 °C, pH 6.5
[15] = substrate: cryPow, 40 °C, pH 7.5
[16] = substrate: cryPow, 60 °C, pH 4.5
[17] = substrate: cryPow, 60 °C, pH 5.5
[18] = substrate: cryPow, 60 °C, pH 6.5
[19] = substrate: cryPow, 60 °C, pH 7.5

| Sequence | melting temperature [1] [C] | purified protein yield per well [2] [µg] | PET hydrolysis [3, 4] | PET hydrolysis [3, 5] | PET hydrolysis [3, 6] | PET hydrolysis [3, 7] | PET hydrolysis [3, 8] | PET hydrolysis [3, 9] | PET hydrolysis [3, 10] | PET hydrolysis [3, 11] | PET hydrolysis [3, 12] | PET hydrolysis [3, 13] | PET hydrolysis [3, 14] | PET hydrolysis [3, 15] | PET hydrolysis [3, 16] | PET hydrolysis [3, 17] | PET hydrolysis [3, 18] | PET hydrolysis [3, 19] |
| --- | --- | --- | --- | --- | --- | --- | --- | --- | --- | --- | --- | --- | --- | --- | --- | --- | --- | --- |
| RPASAQDNPYERGPDPTVSSVAAQRGTFATAEVTVPPGNGFNGGKIYYPTDTSKGTWGAVAAVPGYTAKWAAEGAWMGPWLASFGFVVIGIDTNSPNDYDTARGTQLLAALDYLTQKSPVRDRVDPNRLGVIGHSMGGGGAISAAERRPSLKAALPLAPFSPSQNLSSLRVPTMIMGARDDGTVTPSYLNGLYAGMPAATPSAYIELTSGGHGFPTWGNSNVTRRTIPWLKIFLDNDTRYTQLLCPSPADRTGVSRSQVKCAYVPGGGTTPPPPSSGQIVGAASARCLDVPNSSQTNGTQLQLWDCLDQTSQKWARTDAGELRVYGNKCLDAEASGTSAGTRAIIWDCHGGQNQRWNVNANGTITSARSGLCLDANNAGTANGTQAILWTCNGGSNQRWTLR [TEP097] | 64.6 | 270 | < 3 | < 3 | < 3 | < 3 | < 3 | < 3 | < 3 | < 3 | 8 | 13 ± 1.4 | 31 ± 7.1 | 30.5 ± 2.1 | < 3 | 4.5 ± 0.71 | 4.5 ± 0.71 | 2 ± 2.8 |
| ADNPYQRGPDPTRTSVTAVNGPFANTSVSVPTGHGFNGGRIYYPTDTSQGTFGAIAISPGYTALFSAELAWMGPWLASHGFVVIGIETNSRNDFDTARGTQLLAALDYLTQQSPVRDRVDPSRLAVSGHSMGGGGALSAAMRRASLKAVVGITPYSPSSNLANDRVPTMIISGQADTVVTPSYALGLYNSIPATTESVYLEVAGGDHGFMVGRSNPVLVRTMLPFLKMFIDNDTRYSQFLCPLLDNSGVVTYRSTCPLLPTDPTTPPTGTPTPTPTTPAPTTPPPTTPPGSASEIRGTQSNRCIDVPNASRNNGTRVQLYDCNRQTNQAWTYTANKQLQVYGNMC [ESM106] | 62.2 | 392 | < 3 | 1.5 ± 2.1 | 3.5 ± 0.71 | < 3 | < 3 | < 3 | < 3 | < 3 | 9 ± 4.2 | 24 ± 5.7 | 28 ± 2.8 | 19 ± 1.4 | < 3 | 2 ± 2.8 | 4.5 ± 0.71 | < 3 |

From the supplement of paper PMC12455559
